Sequences and labels used below:
B1: SEQ ID NO. 226 (peptide)
peptide: {CH2CO}-[Ahp′]Y[AlaPiperaz][Trp(βS-Me)][dP]N[4Pal][Trp(7-Cl)][αMeS][Phe(4-COOH)][3Pal][Sar][αMeW]C-NH2
modifications: thioether N-14; reading uncertain; also: printed as cyclo(ClAc-Ahp-Y-AlaPiperaz-SbMeW-dP-N-4Pal-Trp7Cl-aMeS-Phe4COOH-3Pal-Sar-aMeW-C)-NH2
B2: SEQ ID NO. 255 (peptide)
peptide: {CH2CO}-[Nle][4Pal][Pip(4-aza)][Trp(7-aza)][NMeE]N[4Pal][Trp(7-Cl)][αMeS][Phe(4-COOH)]Y[Sar][Trp(βS-Me,7-OMe)]CGEE-NH2
modifications: thioether N-14
SMILES: CCCC[C@@H]1NC(=O)CSC[C@@H](C(=O)NCC(=O)N[C@@H](CCC(=O)O)C(=O)N[C@@H](CCC(=O)O)C(N)=O)NC(=O)[C@H]([C@@H](C)c2c[nH]c3c(OC)cccc23)NC(=O)CN(C)C(=O)[C@H](Cc2ccc(O)cc2)NC(=O)[C@H](Cc2ccc(C(=O)O)cc2)NC(=O)[C@](C)(CO)NC(=O)[C@H](Cc2c[nH]c3c(Cl)cccc23)NC(=O)[C@H](Cc2ccncc2)NC(=O)[C@H](CC(N)=O)NC(=O)[C@H](CCC(=O)O)N(C)C(=O)[C@H](Cc2c[nH]c3ncccc23)NC(=O)[C@@H]2CNCCN2C(=O)[C@H](Cc2ccncc2)NC1=O
B3: SEQ ID NO. 264 (peptide)
peptide: {CH2CO}-[Nle]H[Pip2c][Trp(7-aza)][NMeE]N[4Pal][Trp(7-Cl)][αMeS][Phe(4-COOH)]Y[Sar][Trp(βS-Me,7-OMe)]C-NH2
modifications: thioether N-14; reading uncertain; also: printed as cyclo(ClAc-Nle-H-Pip2c-Trp7az-NMeE-N-4Pal-Trp7Cl-aMeS-Phe4COOH-Y-Sar-SbMeW7OMe-C)-NH2
B4: SEQ ID NO. 217 (peptide)
peptide: {CH2CO}-[Nle]H[Val(3-OH)][Trp(7-aza)][NMeE]N[4Pal][Trp(7-Cl)][αMeS][Phe(4-COOH)]Y[Sar][Trp(βS-Me,7-OMe)]C-NH2
modifications: thioether N-14
SMILES: CCCC[C@@H]1NC(=O)CSC[C@@H](C(N)=O)NC(=O)[C@H]([C@@H](C)c2c[nH]c3c(OC)cccc23)NC(=O)CN(C)C(=O)[C@H](Cc2ccc(O)cc2)NC(=O)[C@H](Cc2ccc(C(=O)O)cc2)NC(=O)[C@](C)(CO)NC(=O)[C@H](Cc2c[nH]c3c(Cl)cccc23)NC(=O)[C@H](Cc2ccncc2)NC(=O)[C@H](CC(N)=O)NC(=O)[C@H](CCC(=O)O)N(C)C(=O)[C@H](Cc2c[nH]c3ncccc23)NC(=O)[C@H](C(C)(C)O)NC(=O)[C@H](Cc2c[nH]cn2)NC1=O
B5: SEQ ID NO. 236 (peptide)
peptide: {CH2CO}-[Nle][4Pal][Pip(4-aza)]W[dP]N[Ala(2-furyl)][Trp(7-Cl)][αMeS][Phe(4-COOH)]Y[Sar][Trp(βS-Me,7-OMe)]C-NH2
modifications: thioether N-14
SMILES: CCCC[C@@H]1NC(=O)CSC[C@@H](C(N)=O)NC(=O)[C@H]([C@@H](C)c2c[nH]c3c(OC)cccc23)NC(=O)CN(C)C(=O)[C@H](Cc2ccc(O)cc2)NC(=O)[C@H](Cc2ccc(C(=O)O)cc2)NC(=O)[C@](C)(CO)NC(=O)[C@H](Cc2c[nH]c3c(Cl)cccc23)NC(=O)[C@H](Cc2ccco2)NC(=O)[C@H](CC(N)=O)NC(=O)[C@H]2CCCN2C(=O)[C@H](Cc2c[nH]c3ccccc23)NC(=O)[C@@H]2CNCCN2C(=O)[C@H](Cc2ccncc2)NC1=O
B6: SEQ ID NO. 237 (peptide)
peptide: {CH2CO}-[Ahp′][4Pal]S[Trp(βS-Me)][dP]N[Phe(4-COOH)][2Nal][αMeS][Phe(4-COOH)]H[Sar][αMeW]C-NH2
modifications: thioether N-14; reading uncertain; also: printed as cyclo(ClAc-Ahp-4Pal-S-SbMeW-dP-N-Phe4COOH-2Nal-aMeS-Phe4COOH-H-Sar-aMeW-C)-NH2

Bridge positions count the residues as written; N and C are the ends. Square brackets hold non-standard residues; d marks the D form. Primed or numbered codes have the meaning given here. Trp(βS-Me,7-OMe) = COc1cccc2c([C@H](C)[C@H](N)C(=O)O)c[nH]c12; Trp(βS-Me) = C[C@@H](c1c[nH]c2ccccc12)[C@H](N)C(=O)O; Trp(7-Cl) = N[C@@H](Cc1c[nH]c2c(Cl)cccc12)C(=O)O; Phe(4-COOH) = N[C@@H](Cc1ccc(C(=O)O)cc1)C(=O)O; Trp(7-aza) = N[C@@H](Cc1c[nH]c2ncccc12)C(=O)O; Phe(4-CH2NH2) = NCc1ccc(C[C@H](N)C(=O)O)cc1; αMeW = C[C@](N)(Cc1c[nH]c2ccccc12)C(=O)O; Ala(2-furyl) = N[C@@H](Cc1ccco1)C(=O)O; 2Nal = N[C@@H](Cc1ccc2ccccc2c1)C(=O)O; Val(3-OH) = CC(C)(O)[C@H](N)C(=O)O; Pip(4-aza) = O=C(O)[C@@H]1CNCCN1; 3Pal = N[C@@H](Cc1cccnc1)C(=O)O; 4Pal = N[C@@H](Cc1ccncc1)C(=O)O; NMeE = CN[C@@H](CCC(=O)O)C(=O)O; NMeS = CN[C@@H](CO)C(=O)O; αMeS = C[C@](N)(CO)C(=O)O; Nle = CCCC[C@H](N)C(=O)O; Pip2c = not defined here; dNMeA = CN[C@H](C)C(=O)O; Ahp′ = not defined here; Dap = NC[C@H](N)C(=O)O; Sar = CNCC(=O)O

The experiment has as its target C'-terminally 6His-tagged human soluble TNFR1 (sTNFR1, residues 1-211) (human). Description: TR-FRET displacement of biotinylated peptide SEQ ID NO. 1 from sTNFR1-6His.
{CH2CO}-[LysN3][4Pal][Dap][Trp(βS-Me)][dP]N[4Pal][Trp(7-Cl)][αMeS][Phe(4-COOH)][Phe(4-CH2NH2)][Sar][αMeW]C-NH2 (thioether N-14) [SEQ ID NO. 245]: the half-inhibitory concentration (IC50) stood at 0.95 nM. The molecule B1 displayed an IC50 of 1.16 nM. In the case of B2, the half-maximal inhibitory concentration (IC50) came to 0.7 nM and the Kd^app was determined as 1.01 nM.

Regarding {CH2CO}-[Nle][4Pal][NMeS]W[NMeE]N[4Pal][Trp(7-Cl)][αMeS][Phe(4-COOH)][Phe3CONH2][Sar][Trp(βS-Me,7-OMe)]C-NH2 (thioether N-14) [SEQ ID NO. 270], the IC50 was determined as 0.55 nM. The molecule B3 registered an IC50 of 1.49 nM. In the case of B4, the IC50 worked out at 1 nM and the Kd^app came to 0.73 nM. As for B5, the half-inhibitory concentration (IC50) stood at 0.9 nM. In turn, {CH2CO}-[Nle][4Pal][Pip2c]W[dP]N[4Pal][Trp(7-Cl)][αMeS][Phe(4-COOH)]Y[dNMeA][Trp(βS-Me,7-OMe)]C-NH2 (thioether N-14; reading uncertain) [SEQ ID NO. 276] returned an IC50 of 2.41 nM. Regarding B6, the 50% inhibitory concentration (IC50) was found to be 13 nM.

Usually IC50 stands for the concentration at which inhibition is half-maximal. Higher therefore signals lower potency.

Source of the values: US20240287138A1, “CYCLIC PEPTIDES FOR INHIBITING TNF RECEPTOR 1 ACTIVITY” (Merck Sharp & Dohme LLC, priority 2023, published 2024).
